Changes are numbered by the printed parent chain.
T1: CIN85-ABC (UniProt Q96B97 1-333)
T1 construct: also called CIN85_(1-333); wildtype-like CIN85-ABC construct
T1 sequence (looked up): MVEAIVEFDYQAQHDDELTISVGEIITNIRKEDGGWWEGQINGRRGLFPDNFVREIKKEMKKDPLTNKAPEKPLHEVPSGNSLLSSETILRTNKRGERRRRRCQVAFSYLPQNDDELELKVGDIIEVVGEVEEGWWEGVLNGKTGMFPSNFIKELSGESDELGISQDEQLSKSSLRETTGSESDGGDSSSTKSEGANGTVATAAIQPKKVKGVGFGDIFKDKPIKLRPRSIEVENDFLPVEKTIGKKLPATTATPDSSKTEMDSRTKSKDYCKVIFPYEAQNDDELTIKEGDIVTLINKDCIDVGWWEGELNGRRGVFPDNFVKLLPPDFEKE

B1: SLP65_(1-330) (domain or fragment, UniProt Q8WV28 1-330, looked up)
chain: MDKLNKITVPASQKLRQLQKMVHDIKNNEGGIMNKIKKLKVKAPPSVPRRDYASESPADEEEQWSDDFDSDYENPDEHSDSEMYVMPAEENADDSYEPPPVEQETRPVHPALPFARGEYIDNRSSQRHSPPFSKTLPSKPSWPSEKARLTSTLPALTALQKPQVPPKPKGLLEDEADYVVPVEDNDENYIHPTESSSPPPEKAPMVNRSTKPNSSTPASPPGTASGRNSGAWETKSPPPAAPSPLPRAGKKPTTPLKTTPVASQQNASSVCEEKPIPAERHRGSSHRQEAVQSPVFPPAQKQIHQKPIPLPRFTEGGNPTVDGPLPSFSS
notes: Src homology 2 domain-containing leukocyte protein of 65 kDa (SLP65, BLNK), shortened at the C-terminus, residues 1-330, lacks the C-terminal SH2 domain; also called Wildtype SLP65_(1-330); BLNK
B2: SLP65-3xPRM4 (domain or fragment)
chain: B1 chain with I276S, A278L, E279P, I308S
modifications: 1-330 is printed; the text says PRMs are six residues long. The swapped limits are assumed: PRM5 275-280 and PRM6 307-312, each replaced by PRM4 242-247. Partly Atto430LS-labelled for microscopy.
B3: CIN85-BBB (domain or fragment)
chain: RRRRRCQVAFSYLPQNDDELELKVGDIIEVVGEVEEGWWEGVLNGKTGMFPSNFIKELSGEMKKDPLTNKAPEKPLHEVPSGNSLLSSETILRTNKRGERRRRRCQVAFSYLPQNDDELELKVGDIIEVVGEVEEGWWEGVLNGKTGMFPSNFIKELSGESDELGISQDEQLSKSSLRETTGSESDGGDSSSTKSEGANGTVATAAIQPKKVKGVGFGDIFKDKPIKLRPRSIEVENDFLPVEKTIGKKLPATTATPDSSKTEMDSRTRRRRRCQVAFSYLPQNDDELELKVGDIIEVVGEVEEGWWEGVLNGKTGMFPSNFIKELSGDFEKE
B4: SLP65-R247A (domain or fragment, UniProt Q8WV28 1-330, looked up)
chain: B1 chain with R247A
notes: the C-terminally shortened version (1-330) was used for measurements

Key:
Assay in all cases: ITC; multivalent SLP65 constructs with multivalent CIN85 constructs (global KD); conditions in the SI Appendix
Conditions in all cases: both partners purified
[1] = target: T1, CIN85-ABC
[2] = target: B3
[3] = target: B1

| Kd [1] | Kd [2] | Kd [3] | Binder |
| --- | --- | --- | --- |
| 1360 ± 170 nM | – | – | B1 |
| 240 ± 10 nM | 140 ± 60 nM | – | B2 |
| – | – | 700 ± 250 nM | B3 |
| 7040 ± 1120 nM | – | – | B4 |

From publication PMC10923291, “Quantitative description of the phase-separation behavior of the multivalent SLP65–CIN85 complex” (PNAS Nexus, 2024)
